The results in this text go back to patent publication US6942981.

This test deals with GST-DLG1 PDZ domains 1-2 fusion protein (human) (UniProt Q12959). Briefly: variant of the G assay; 100 uM unlabeled 8-mer with 20 uM biotin-labeled AA2L on immobilized GST-DLG1.

“CLASP-2 C-terminal 8-mer peptide MTSSSSVV (unlabeled)”: the percent inhibition of labeled AA2L CLASP-2 peptide binding is > 50%.
